Laboratory results from patent US20210139917.

B1: recombinant SurE protein (peptide cyclization enzyme derived from Streptomyces albidoflavus NBRC 12854) (protein)
chain: VGAEGAERDAVGALFEELVREHRVTGAQLSVYRDGALSEYATGLASVRTGEPVTPRTGFPFGSVTKFLTAELVMQFVCDGDLDLDDPLAGLLPDLGRAAGPPLGTATVRQLLSHTAGVVDSIEYDEMRGPSYRRFAAACARQPALFPPGLAFSYSNTGYCLLGAVIEAASGMDWWTAMDSCLLRPLGIEPAFLHDPRPGQGGAARPVAEGHALRAGGERAEHVDHMASLSLAAAGGLVGSATDLVTAARPHLADRKTFAQHDLLPEDAVLAMRTCVPDAEPFGLADGWGLGLMRHGTGDGAWYGHDGAVGGASCNLRIHPDRSLALALTANSTAGPKLWEALVARLPEAGLDVGHYALPVPDSAPLAPDAGHLGTYANGDLELMVTHDAAGDLFLTRESYSDYRLSLHEDDLFVARSGEPGALPITGRFVREHPAGPVALLQYGGRAMHRL
B2: peptide cyclization enzyme from Goodfellowiella coeruleoviolacea NBRC 14988 (protein)
chain: VPNEQDLGSLLARLAERHRVPGAQLSVCHDSASVTVVTGRERHGAATPVTARSAFPLGSLTKPFTAALAMVLVADGDLDLDEPVAGYHPGVTLRRLLSHTAGLESNVDEQAAAGVPRRRWVTRYPARLAPEHPPGTVFSYSNVGYLLAGHLVEEVTGLDWAEAVESVLLRPLGITPAFVVGAAGSRGVVCGHVLTDDRVLPVAEQVMPEVEAPNGALALSSADLLAFAALFSANSPAPDVLDPATAALMCQDQLADVRVGPYGMADGWGLGWARYRGAGADWFGHDGTGDGTSCHLRFDPERGTAVALTTNGSTGAALWRELCAELAERHVLPPEWGREPGEATPVAGPPDGAGHYANGPAEFVVTRQDDDGLALVLDGAQAVPLTCLPDLRFQLRLGTTVLSGRFLRDPDTGGIDHIQVTGRLARRRQVTG
B3: peptide cyclization enzyme from Streptomyces noursei NBRC 15452 (protein)
chain: VHGDSADPAGYGAGDGSPLDLDLDRLARDCDVAGGQLAVHHHGVLETWEFGEEEPGAGRPVHSATAFPYGSTTKVCTATSVLQLVGDGDLDLDRPVREWLPEAGTVPEARRDHPALAATLRQLLSHTAGLPSDHDDADASSLRRWLTGFLAAPADARPAPGTFSYSNVGYGIAGRVVESVTGLPWYEAVRDYLLRPLGTAITALPAEPGSLPAGGLAGSAADLVRLGLLHIAEPGRPDLADPAALGEATRPTAGADPFGLADGWGPGLGHFGPAEDRWLGHDGTLDGATCHLRIHPRRGTVIALTTNSPTGQALWDAVVGALRDAGIDVGVYRPAPPPSLAQGGAPAGAAAFADCTGTYRNGDLAVTVGLDGPHLVLELPGGARELAEPLARRTFAARGAGAFLGRFAVDARTGAVHALQYSGRTLLRDTGRAHGARPH

Legend:
[1] = target: substrate in which Ile at the N-terminus of the compound indicated in 3 of FIG. 2a is substituted with L-Trp
[2] = target: methyl ester of the compound indicated with 3 in FIG. 2a
[3] = target: substrate peptide 3 (SB-SNAC), SNAC body indicated with 3 in FIG. 2a
[4] = target: longer peptide (11 amino acid residues, SNAC body)
[5] = target: shorter peptide (7 amino acid residues, SNAC body)
[6] = target: SB(L8F)-SNAC, peptide in which D-Leu at the C-terminus of SB-SNAC is substituted with D-Phe
[7] = target: substrate peptide (SNAC body) shown in FIG. 4
[8] = target: SB(L8A)-SNAC, peptide in which D-Leu at the C-terminus of SB-SNAC is substituted with D-Ala

Row | Protein | kcat/KM of the cyclization reaction relative to substrate 3 of FIG. 2a [1] | peptide cyclization reaction [2] | peptide cyclization reaction, HPLC analysis of the product [3] | peptide cyclization reaction (data not shown) [4] | peptide cyclization reaction (data not shown) [5] | kcat/KM of the cyclization reaction relative to substrate 3 of FIG. 2a [6] | peptide cyclization reaction, HPLC and mass spectrometry (extracted ion chromatogram) [7] | peptide cyclization reaction, HPLC [8] | peptide cyclization reaction, HPLC [3] | peptide cyclization reaction, HPLC [6]
1 | B1 | two to five times higher than the kcat/KM value obtained when the compound indicated with 3 in FIG. 2a was used as a substrate | even when the methyl ester was used as a substrate, the same cyclized product as in the case of using the SNAC body was produced | cyclized the substrate peptide to give a cyclized peptide 1 (Surugamide B) as a single product | a cyclized product was observed to be obtained by the recombinant SurE | a cyclized product was observed to be obtained by the recombinant SurE | two to five times higher than the kcat/KM value obtained when the compound indicated with 3 in FIG. 2a was used as a substrate | a product having a molecular weight corresponding to the molecular weight (m/z 1038.8) of a cyclized product of Surugamide F (cyclic Surugamide F) was detected |  |  | 
2 | B2 |  |  |  |  |  |  |  | the two enzymes produced cyclized peptides from three substrates | the two enzymes produced cyclized peptides from three substrates | the two enzymes produced cyclized peptides from three substrates
3 | B3 |  |  |  |  |  |  |  | the two enzymes produced cyclized peptides from three substrates | the two enzymes produced cyclized peptides from three substrates | the two enzymes produced cyclized peptides from three substrates
